Laboratory results: patent publication US20190284262A1 (Memorial Sloan Kettering, published 2019)

B1: EXT017-26 scFv phage clone (scFv)
scFv: SYVLTQPPSVSVAPGQTARITCGGTDIRRKTVHWYQQKPGLAPVLVLYDDSDRPSGIPERFSGSNSGNTATLTISRVEGGDEADYYCQVWDNDNDHYVFGPGTKVTVLGSRGGGGSGGGGSGGGGSLEMAEVQLVQSGAEVKKPGASVKVSCKASGYTFTNYYIHWVRQTPGEGLEWMGIIRPSGGNTNYAQKFQGRVTMTRDTSTRTVYMELSSLRSEDTAVYYCARSWDTFSDEWGQGTLVTVSSTSGQAGQHHHHHHGAYPYDVPDYAS
notes: also called phage clone #26
B2: EXT017-9 scFv phage clone (scFv)
scFv: QSALTQPASASGSPGQSVTISCTGTSSDVGGYNYVSWYQQHPGKAPKLMIYEVSKRPSGVPDRFSGSKSGNTASLTVSGLQAEDEADYYCSSYAGSNNVVFGGGTKLTVLGSRGGGGSGGGGSGGGGSLEMAEVQLVQSGAEVKKPGASVKISCKASRYTFTNYYIHWVRQAPGQGLEWMGIINPSGGSTTYPQNFQGRLTMTRDTSTSTVYMELSSLRSEDTAMYYCARGWSGYDPGDFWGQGTLVTVSSTSGQAGQHHHHHHGAYPYDVPDYAS
notes: also called phage clone #9
B3: (FoxP2)_#12 (scFv)
scFv (VL-linker-VH-His/HA tag): SYELTQPPSVSVAPGKTARITCGGNNIGSKSVHWYQQKPGQAPVLVIYYDSDRPSGIPERFSGSNSGNTATLTISRVEAGDEADYYCQVWDSSSDHRVFGGGTKVTVLGSRGGGGSGGGGSGGGGSLEMAEVQLVESGGGLVQPGGSLRLSCAASGFTFSSYWMNWVRQAPGKGLEWVANIKQDGSEKNYVDSVKGRFTISRDNAKNSLYLQMNSLRGEDTAVYYCARYGGGPYDSWGQGTLVTVSSTSGQAGQHHHHHHGAYPYDVPDYAS
notes: also called EXT019-12 scFv phage clone
B4: (FoxP2)_#20 (scFv)
scFv (VL-linker-VH-His/HA tag): SYVLTQPPSVSVAPGKTARITCGGNNIGSKSVHWYQQKPGQAPVLVIYYDSDRPSGIPERFSGSNSGNTATLTISRVEAGDEADYYCQVWDSSSDRVVFGGGTKLTVLGSRGGGGSGGGGSGGGGSLEMAQVQLQQSGPGLVKPSQTLSLTCAISGDSISSKSAAWNWIRQSPSRGLEWLGRTYYRSKWYYEYAPSVRSRITINRDTSKNQFSLQLNSVTPEDTAVYYCARSTGTFDYWGQGTLVTVSSTSGQAGQHHHHHHGAYPYDVPDYAS
notes: also called EXT019-20 scFv phage clone
B5: (FoxP2)_#6 (scFv)
scFv (VL-linker-VH-His/HA tag): QSVVTQPPSVSGAPGQGVTIPCTGSSSNIGAGYDVHWYQQLPGTAPKLLIYGNNNRPSGVPDRFSGSRSGSSASLAITGLQAEDEADYYCQSYDSSLSDVVFGGGTKLTVLGSRGGGGSGGGGSGGGGSLEMAEVQLVQSGAEVKKPGESLKISCKGSGYNFASEWIGWVRQMPGKGLEWMGLIYPAESEITYSPSFQGQVTISVDKSISTAYLQWSSLKASDTAMYYCARAWDANYIYMDIWGQGTLVTVSSTSGQAGQHHHHHHGAYPYDVPDYAS
notes: also called EXT019-6; EXT019-06 scFv phage clone
B6: (FoxP2)_#15 (scFv)
scFv (VL-linker-VH-His/HA tag): SYVLTQPPSVSVAPGETASITCGANNIGSESVHWYQQKSGQAPVLVIYYDSDRPSGIPERFSGSNSDNTATLTISRVEAGDEADYYCQVWDHINDHYVFGSGTKVTVLGSRGGGGSGGGGSGGGGSLEMAEVQLVESGGGLAQPGGSLRLSCAASGFSFSNYAMSWVRQAPGTGLEWVAGISGRGGSIHYADSVKGRFTISRDNSQSTVFLQMNNLGAEDTAIYYCAKSSEDYYFYHMDAWGIGTTVTVSSTSGQAGQHHHHHHGAYPYDVPDYAS
notes: also called EXT019-15 scFv phage clone
B7: (FoxP2)_#4 (scFv)
scFv (VL-linker-VH-His/HA tag): QPVLTQPPSVSVAPGKTARITCGGNNIGSKSVHWYQQKPGQAPVLVIYYDSDRPSGIPERFSGSNSGNTATLTISRVEAGDEADYYCQVWDSSSDHPVFGGGTKLTVLGSRGGGGSGGGGSGGGGSLEMAQVQLVQSGAEVKKPGSSVKVSCKASGGTFSSYAISWVRQAPGQGLEWMGGIIPIFGTANYAQKFQGRVTITADESTSTAYMELSSLRSEDTAVYYCARSSYWWTSDRWGQGTLVTVSSTSGQAGQHHHHHHGAYPYDVPDYAS
notes: also called EXT019-4; EXT019-04 scFv phage clone
B8: (FoxP2)_#9 (scFv)
scFv (VL-linker-VH-His/HA tag): SYELTQPPSVSVAPGKTARITCGGNNIGSKSVHWYQQKPGQAPVLVIYYDSDRPSGIPERFSGSNSGNTATLTISRVEAGDEADYYCQVWDSSSDHWVFGGGTKLTVLGSRGGGGSGGGGSGGGGSLEMAQVQLVQSGGGLVQPGGSLKLSCAASGFAFSGSSLHWVRQASGKGLEWVGRITSKAYNYATLYAASVKGRFTISRDDSKNTAYLQMNSLQTEDTAVYYCTQTGDSSAYWGQGTLVTVSSTSGQAGQHHHHHHGAYPYDVPDYAS
notes: also called EXT019-9; EXT019-09 scFv phage clone
B9: (FoxP2)_#13 (scFv)
scFv (VL-linker-VH-His/HA tag): LPVLTQPPSVSVAPGKTARITCGGNNIGSKSVHWYQQKPGQAPVLVIYYDSDRPSGIPERFSGSNSGNTATLTISRVEAGDEADYYCQVWDSSSAYVFGTGTKVTVLGSRGGGGSGGGGSGGGGSLEMAQVQLQQSGPGLVKPSQTLSLTCAISGDSVSSNSAAWNWIRQSPSRGLEWLGRTYYRSKWYNDYAVSVKSRITINPDTSKNQFSLQLNSVTPEDTAVYYCARYYSTSLDSWGQGTLVTVSSTSGQAGQHHHHHHGAYPYDVPDYAS
notes: also called EXT019-13 scFv phage clone
B10: (FoxP2)_#8 (scFv)
scFv (VL-linker-VH-His/HA tag): QSVLTQPPSVSEAPRQRVTISCSGSSSNIGNNAVNWYQQLPGKAPKLLIYYDDLLPSGVSDRFSGSKSGTSASLAISGLQSEDEADYYCAAWDDSLNGPVFGTGTKVTVLGSRGGGGSGGGGSGGGGSLEMAEVQLVQSGAEVKKPGASVKVSCKASGYNFTSYGISWVRQAPGQGLEWMGWISAYNGNTNYAQKLQGRVTMTTDTSTSTAYMELRSLRSDDTAVYYCARDWDYDFLTGWDGMDVWGQGTTVTVSSTSGQAGQHHHHHHGAYPYDVPDYAS
notes: also called EXT019-8; EXT019-08 scFv phage clone
B11: #30 (scFv)
scFv: SYVLTQPPSVSVAPGQTARMTCEGSNLGSKSVHWYQQKPGQAPVLVVHDDSDRPSGIPDRFSGSKSGNTATLTISRVEAGDEADYYCQVWHSSSDHYVFGTATKVTVLGSRGGGGSGGGGSGGGGSLEMAQVQLVQSGAEVKKPGASVKVSCKASGYTFTNYYIHWVRQAPGQGLEWMGIIRPSGGITNYAQKFQGRVSMTRDTSTSTVYMELSSLRSEDTAVYYCARSWHENSGVDSWGQGTLVTVSSTSGQAGQHHHHHHGAYPYDVPDYAS
notes: also called EXT017-30; EXT017-30 scFv phage clone

target: T1, HLA-A*02:01 on T2 cells alone (no peptide added) (human); experiment: flow cytometry, phage on T2 cells
T1 construct: TAP-deficient T2 cells without pulsed peptide; negative control target, and the HLA molecule whose stabilisation by peptides is read in the T2 stabilization assay; also called HLA-A*02 molecule; HLA-A2 molecule

| Binder | binding result |
| --- | --- |
| B1 | no binding |
| B2 | no binding |

target: T1, HLA-A*02:01 on T2 cells alone (no …); experiment: flow cytometry, phage on T2 without peptide

| Binder | binding result |
| --- | --- |
| B3 | no binding |
| B4 | no binding |
| B5 | no binding |
| B6 | no binding |
| B7 | no binding |
| B8 | no binding |
| B9 | no binding |
| B10 | no binding |

target: T2, R3 (RHAMM-R3) peptide/HLA-A*02:01 complex on T2 cells (human); experiment: flow cytometry, phage on T2 + R3 peptide; secondary only 123, unstained 99.8
T2 construct: Control target of the phage staining of T2 cells; also called T2 cells pulsed with R3 peptide; RHAMM 3 (R3)

| Binder | Median:FITC-A |
| --- | --- |
| B1 | 144 |
| B2 | 144 |

target: T1, HLA-A*02:01 on T2 cells alone (no …); experiment: flow cytometry, phage on T2 without peptide; secondary only 121, unstained 106

| Binder | Median:FITC-A |
| --- | --- |
| B1 | 146 |
| B2 | 150 |

target: T1, HLA-A*02:01 on T2 cells alone (no …); experiment: flow cytometry, phage on T2 without peptide; secondary only 100, unstained 99.5

| Binder | Median:FITC-A |
| --- | --- |
| B2 | 149 |

target: T1, HLA-A*02:01 on T2 cells alone (no …); experiment: flow cytometry, phage on T2 without peptide; secondary only 320, unstained 91.4

| Binder | Median:FITC-A |
| --- | --- |
| B1 | 385 |
| B11 | 354 |

target: T1, HLA-A*02:01 on T2 cells alone (no …); experiment: flow cytometry, phage on T2 without peptide; secondary only 118, unstained 95.2

| Binder | Median:FITC-A |
| --- | --- |
| B3 | 151 |
| B4 | 149 |
| B5 | 146 |
| B6 | 145 |
| B7 | 147 |
| B8 | 140 |
| B9 | 143 |
| B10 | 141 |

target: T3, Foxp3-7 peptide/HLA-A*02:01 complex on the cell surface (human); experiment: flow cytometry, phage on T2 + Foxp3-7 peptide; secondary only 133, unstained 103
T3 construct: also called Foxp3-7/HLA-A2 complex

| Binder | Median:FITC-A |
| --- | --- |
| B2 | 1730 |

target: T3, Foxp3-7 peptide/HLA-A*02:01 complex on …; experiment: flow cytometry, phage on T2 + Foxp3-7 peptide; secondary only 116, unstained 93.8

| Binder | Median:FITC-A |
| --- | --- |
| B1 | 410 |
| B2 | 287 |

target: T3, Foxp3-7 peptide/HLA-A*02:01 complex on …; experiment: flow cytometry, phage on T2 + Foxp3-7 peptide; secondary only 318, unstained 95.8

| Binder | Median:FITC-A |
| --- | --- |
| B1 | 1880 |
| B11 | 1130 |

target: T4, T2+EW (Homo sapiens, UniProt A*02:01); experiment: flow cytometry, phage on T2 + EW peptide; secondary only 310, unstained 93
T4 construct: on the surface of T2 cells; irrelevant control peptide; also called EW peptide/HLA-A*02:01 complex on T2 cells; T2 pulsed with EW peptide

| Binder | Median:FITC-A |
| --- | --- |
| B1 | 375 |
| B11 | 378 |

target: T4, T2+EW; experiment: flow cytometry, phage on T2 + EW peptide; secondary only 113, unstained 94.7

| Binder | Median:FITC-A |
| --- | --- |
| B2 | 151 |

target: T2, R3 (RHAMM-R3) peptide/HLA-A*02:01 …; experiment: flow cytometry, phage on T2 + R3 peptide; secondary only 126, unstained 94.4

| Binder | Median:FITC-A |
| --- | --- |
| B3 | 151 |
| B4 | 148 |
| B5 | 157 |
| B6 | 145 |
| B7 | 145 |
| B8 | 148 |
| B9 | 141 |
| B10 | 142 |
